Measurements published in PMC7387800.

Columns and labels:
[1] = system: 6xHis-VqmA C134A (Vibrio cholerae C6706?); experiment: EMSA
[2] = system: 6xHis-VqmA WT (Vibrio cholerae C6706?); experiment: EMSA
[3] = biological target: VqmA-FLAG (Vibrio cholerae); experiment: non-reducing SDS-PAGE with anti-FLAG immunoblot (disulfide-linked dimer); cells treated 1 h with 25 μM DPO, in the presence or absence of O2; lysate boiled in SDS-PAGE buffer without BME
[4] = biological target: VqmA-FLAG (Vibrio cholerae)

Substance | binding signal (fold reduction vs DTT-treated P2) [1] | binding signal (fold more potent than diamide-treated P2) [2] | percent of Holo-VqmA with the intermolecular C134-C134 disulfide bond [3] [%] | stoichiometry N [3] | vqmR-lacZ reporter activity in ΔvqmA Δtdh V. cholerae carrying pvqmA-FLAG, with 25 μM DPO, with against without DTT [4] [fold]
vqmR promoter DNA (PvqmR) | 4 | 2 |  |  | 
VqmA-FLAG (natural protein) |  |  | 40 to 50 | 2 | 6
